Source: patent US20220288124A1

Legend:
[1] = molecular target: hGPC3-C fragment (AA359-580) (human) (UniProt P51654); experiment: flow cytometry, intracellular staining of 293 cells transfected with hGPC3-C; gate set on untransfected cells
[2] = molecular target: hGPC3-C fragment (AA359-580) (human) (UniProt P51654); experiment: flow cytometry, intracellular staining of 293T cells transfected with hGPC3-C; gate set on untransfected cells

hGPC3-C fragment (AA359-580) (human), sequence (P51654 359-580 limits assumed, form in doubt): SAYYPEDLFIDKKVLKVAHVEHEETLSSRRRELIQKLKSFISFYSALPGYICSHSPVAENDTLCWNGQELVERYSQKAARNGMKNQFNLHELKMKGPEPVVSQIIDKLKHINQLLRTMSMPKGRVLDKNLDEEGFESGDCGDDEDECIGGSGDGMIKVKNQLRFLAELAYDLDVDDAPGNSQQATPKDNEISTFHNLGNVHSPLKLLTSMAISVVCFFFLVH

| % of cells in the positive gate [1] [%] | % of events in gate M1 [2] [%] | Binder |
| --- | --- | --- |
| 0.92 | 0.47 | mAb 12D7 (mouse hybridoma antibody) (antibody, V domains shown) VH: QVQLQQPGSELVRPGASVKLSCKASGYTFTSYWMHWVKQRLGQGLEWIGNIYPGSGSTNYDEKFKSKGTLTVDTSSSTAYMHLSSLTSEDSAVYYCTRGDYDWVFAYWGQGTLVTVSA VL: DIVMTQSQKFMSTSVGDRVSVTCKASQNVGTNVAWYQQKPGQSPKALIYSASYRYSGVPDRFTGSGSGTDFTLTISNVQSEDLAEYFCQQYNSYPLTFGAGTKLELKR |
| 0.75 | 4.03 | mAb 6G11 (mouse hybridoma antibody) (antibody, V domains shown) VH: QVQLQQPGSELVRPGASVKLSCKASGYTFTSCWMHWVKQRPGQGLEWIGNIYPGYGNTNYDEKFKNKATLTVDTSSSTAYMQLSGLTSEDSAVYYCTRGSYLYAMDYWGQGTSVTVSS VL: DIQMNQSPSSLSASLGDTITITCHASQNINVWLSWYQQKPGNIPKLLIYKASNLHTGVPSRFSGSGSGTGFTLTISSLQPEDIATYYCQQGQSYPWTFGGGTKLEIKR |
